{
  "source": "patent US9809653B2",
  "about": "“Anti-LAMP1 antibodies and antibody drug conjugates, and uses thereof” (SANOFI, priority 2012, dated 2017)",
  "key": {"[1]": {"tested_on": "Colon Colo205 tumoral cells expressing LAMP1", "test": "Internalization score by ImageStream multispectral imaging flow cytometer", "assay_type": "cell-based, human", "conditions": "Colo205, 10 μg/ml AlexaFluor488-labeled antibody", "text": "The internalization score (IS) is defined as a ratio of the fluorescence intensity inside the cell to the intensity of the entire cell. […] The higher the score, the greater the fluorescence intensity is inside the cell. As described by Amnis (see the world wide web at amnis.com), the inside of the cell is defined by an erosion of a mask that fits the membrane of the cell. The score is invariant to cell size and can accommodate concentrated bright regions and small dim spots. The ratio is mapped to a logarithmic scale to increase the dynamic range to values between {−inf, inf}. The thickness of the membrane (in pixels) determines which pixels are used to define the boundary and the membrane portions of the cell. The user supplies an ‘internal’ mask based on the brightfield image that covers the inside of the cell, the thickness of the membrane in pixels and the fluorescent channel of interest. The cell is divided into 2 regions: External (B) and internal (I). The user supplies the internal region as the mask. The external region is determined by: 1. Dilating the internal mask by the membrane thickness. 2. Combining 1 with the object mask of the channel of interest. 3. External region equals mask 2 and not the internal mask. Next, the mean intensity of the upper quartile of the pixels in each region is determined. The Internalization Score (IS) is then computed as follows:\nCells were washed by centrifugation with PBS 1% BSA at 400 g for 5 minutes. Cells were fixed and permeabilized using 100 μL of Perm/Fix buffer on ice for 20 minutes. Cells were washed by centrifugation with 1 mL of Perm/Wash Cell buffer at 400 g for 5 minutes.\nTo test whether internalized antibodies accumulate in lysosomes, simultaneous uptake of mAbs and AlexaFluor647-labeled CD107a (a lysosomal marker) were carried out. […] After incubation, 1 mL Perm/Wash Cell buffer was added to wash, before centrifuging (400 g, 5 min). The supernatant was flicked from the plate before the cells were fixed with 200 μL 1% formaldehyde on ice for 20 minutes. The fluorescence of cells was analyzed with the ImageStream multispectral imaging flow cytometer (Amnis corp.) using the Internalization feature. Five thousand events were acquired for each experimental condition and the corresponding images were analyzed using the IDEAS image-analysis software."}, "[2]": {"molecular_target": "T1, LAMP1 (SEQ ID NO: 28 protein) (Homo sapiens, UniProt P11279)", "T1 construct": "made in house; host or cells: HEK293 (293-F), transient expression, IMAC-purified", "T1 sequence (P11279 with tags, fused parts or gaps)": "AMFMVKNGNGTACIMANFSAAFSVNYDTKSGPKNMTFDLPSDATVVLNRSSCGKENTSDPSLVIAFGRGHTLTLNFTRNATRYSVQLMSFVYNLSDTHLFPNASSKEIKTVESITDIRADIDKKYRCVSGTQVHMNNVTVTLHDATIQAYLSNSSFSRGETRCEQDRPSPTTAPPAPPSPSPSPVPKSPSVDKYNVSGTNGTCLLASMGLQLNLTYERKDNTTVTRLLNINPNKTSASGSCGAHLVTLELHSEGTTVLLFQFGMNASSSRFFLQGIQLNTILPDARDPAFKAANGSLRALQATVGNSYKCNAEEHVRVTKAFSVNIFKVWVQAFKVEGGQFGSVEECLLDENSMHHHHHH", "test": "Affinity to LAMP1 by SPR (BIAcore 2000)", "assay_type": "binding", "protocol": "The use of surface plasmon resonance to determine is known to the skilled in the art. In one example the binding kinetics of for example the murine, chimer or humanized anti-LAMP1 mAbs were determined by surface plasmon resonance assay using typically a BIAcore 2000 (BIAcore Inc., Uppsala, N.J.). Therefore, for example a CM5 BIAcore biosensor chip was docked into the instrument and activated with for example 70 μL of 1:1 NHS/EDC at room temperature. Typically, a mouse anti-αhuman Fc IgG1 (BIAcore #BR-1008-39) and rabbit anti-αmurine Fc IgG1 (BIAcore #BR-1008-38) (50 μg/mL in 1 M acetate buffer, pH5) were immobilized on the activated chips in all flow cells. The immobilization was carried out at a flow rate of for example 10 μL/min up to saturation. The chip was then blocked by for example injection of 70 μL of ethanolamine-HCl, pH 8.5, followed by one wash with 3 M MgCl2 for anti-αhuman Fc IgG1 and one wash with 10 mM Glycine-HCl pH 1.7 for anti-αmurine Fc IgG1. To measure the binding of for example anti-LAMP1 mAbs to LAMP1, antibodies were used at 1-5 μg/mL in BIAcore running buffer (HBS-EP). The antigen for example (Sequence ID No 28 protein produced as described in example 6.2) was injected from for example 1 to 256 nM. Following completion of the injection phase, dissociation was monitored in a BIAcore running buffer at the same flow rate for typically 600 sec. The surface was typically regenerated between injections using for example 2×5 μL 3 M MgCl2 (2×30 s) or anti-αhuman Fc IgG1 and 1×30 μL 10 mM Glycine-HCl pH 1.7 for anti-αmurine Fc IgG1 (180 s). Individual sensorgrams were typically analyzed using BIAevaluation software.\nThe binding kinetics of the murine, chimer or humanized anti-LAMP1 mAbs were determined by surface plasmon resonance assay using a BIAcore 2000 (BIAcore Inc., Uppsala, N.J.). Briefly, a CM5 BIAcore biosensor chip was docked into the instrument and activated with 70 μL of 1:1 NHS/EDC at room temperature. A mouse anti-αhuman Fc IgG1 (BIAcore #BR-1008-39) and rabbit anti-αmurine Fc IgG1 (BIAcore #BR-1008-38) (50 μg/mL in 1 M acetate buffer, pH5) were immobilized on the activated chips in all flow cells. The immobilization was carried out at a flow rate of 10 μL/min up to saturation. The chip was then blocked by injection of 70 μL of ethanolamine-HCl, pH 8.5, followed by one wash with 3 M MgCl2 for anti-αhuman Fc IgG1 and one wash with 10 mM Glycine-HCl pH 1.7 for anti-αmurine Fc IgG1. To measure the binding of anti-LAMP1 mAbs to LAMP1, antibodies were used at 1-5 μg/mL in BIAcore running buffer (HBS-EP). The antigen (SEQ ID NO: 28 protein produced as described in example 6.2) was injected from 1 to 256 nM. Following completion of the injection phase, dissociation was monitored in a BIAcore running buffer at the same flow rate for 600 sec. The surface was regenerated between injections using 2×5 μL 3 M MgCl2 (2×30 s) or anti-αhuman Fc IgG1 and 1×30 μL 10 mM Glycine-HCl pH 1.7 for anti-αmurine Fc IgG1 (180 s). Individual sensorgrams were analyzed using BIAevaluation software."}},
  "data": [
    {"molecule": "MAb2: murine monoclonal anti-LAMP1 antibody, VH SEQ ID NO: 8, VL SEQ ID NO: 12 (antibody, V domains shown, antibod fragment; antibody fragment) VH: QVQLQQSAAELARPGASVKMSCKASGYTFTSYTMHWVKQRPGQGLEWIGYFNPSSGYPEYNQKFKDKTTLTADKSSNTAFIQLNSLTSEDSAVYYCSRGYYYGSRGYALDFWGQGASVTVSS VL: NIVLTQSPVSLAVSLGQRATISCRASESVDINGNTFMHWYQQKPGQSPKLVIYAASNIESGVPARFSGSGSSTDFTFTIDPVEADDVATYYCQQNIEDPWTFGGGTKVEIK", "values": [
      {"measurement": "Internalization score (IS) 4° C., 4 hr", "setting": "[1]", "result": 0.19},
      {"measurement": "Internalization score (IS) 37° C., 4 hr", "setting": "[1]", "result": 2.24},
      {"measurement": "Kd", "setting": "[2]", "result": 0.0635, "unit": "µM"},
      {"measurement": "ka", "setting": "[2]", "result": 63300, "unit": "M⁻¹ s⁻¹"},
      {"measurement": "kd", "setting": "[2]", "result": 0.00402, "unit": "s⁻¹"}
    ]},
    {"molecule": "MAb1: murine monoclonal anti-LAMP1 antibody, VH SEQ ID NO: 1, VL SEQ ID NO: 5 (antibody, V domains shown, Antibody Fragment; antibody fragment) VH: QVQLQQSGAELVKPGASVKMSCKASGYIFTNYNIHWVKKSPGQGLEWIGAIYPGNGDAPYSQKFKDKATLTADKSSSTTYMQLSRLTSEDSAVYYCVRANWDVAFAYWGQGTLVSVSA VL: DIQMTQSPPSLSASLGGKVTITCKASQDIDRYMAWYQDKPGKGPRLLIHDTSTLQPGIPSRFSGSGSGRDYSFSISNLEPEDIATYYCLQYDNLWTFGGGTKLEIK", "values": [
      {"measurement": "Internalization score (IS) 4° C., 4 hr", "setting": "[1]", "result": 0.22},
      {"measurement": "Internalization score (IS) 37° C., 4 hr", "setting": "[1]", "result": 2.22},
      {"measurement": "Kd", "setting": "[2]", "result": 0.0048, "unit": "µM"},
      {"measurement": "ka", "setting": "[2]", "result": 148000, "unit": "M⁻¹ s⁻¹"},
      {"measurement": "kd", "setting": "[2]", "result": 0.00071, "unit": "s⁻¹"}
    ]}
  ]
}
